Laboratory results reported in patent US20250381223A1.

Legend:
Her2-Fc [1] = experiment: flow cytometry of T cells with 0.5 µg 4D5.BBZ mRNA and 15 µg 4.1 mRNA; Her2-Fc + PE-anti-IgG-Fc; E1 without mRNA: 1.26
Her2-Fc [2] = experiment: flow cytometry of T cells with 0.5 µg 4D5.BBZ mRNA and 15 µg 4.8 mRNA; Her2-Fc + PE-anti-IgG-Fc; E1 without mRNA: 1.26
CD40-Fc (human) = CD40-Fc (human) (UniProt P25942); experiment: flow cytometry of T cells electroporated with 0.5 µg 4D5.BBZ mRNA alone; CD40-Fc + PE-anti-IgG-Fc; E1 without mRNA: 0.27
Her2-Fc [3] = experiment: flow cytometry of T cells with 0.5 µg 4D5.BBZ mRNA and 15 µg 8.6 mRNA; Her2-Fc + PE-anti-IgG-Fc; E1 without mRNA: 1.26
Her2-Fc [4] = experiment: flow cytometry of T cells with 0.5 µg 4D5.BBZ mRNA and 5 µg A40C28 mRNA; Her2-Fc + PE-anti-IgG-Fc; E1 without mRNA: 1.26
Her2-Fc [5] = experiment: flow cytometry of T cells electroporated with 0.5 µg 4D5.BBZ mRNA alone; Her2-Fc + PE-anti-IgG-Fc; E1 without mRNA: 1.26
Her2-Fc [6] = experiment: flow cytometry of T cells with 0.5 µg 4D5.BBZ mRNA and 15 µg 4.3 mRNA; Her2-Fc + PE-anti-IgG-Fc; E1 without mRNA: 1.26
Her2-Fc [7] = experiment: flow cytometry of T cells with 0.5 µg 4D5.BBZ mRNA and 15 µg 4.5 mRNA; Her2-Fc + PE-anti-IgG-Fc; E1 without mRNA: 1.26
Her2-Fc [8] = experiment: flow cytometry of T cells with 0.5 µg 4D5.BBZ mRNA and 15 µg 4.7 mRNA; Her2-Fc + PE-anti-IgG-Fc; E1 without mRNA: 1.26
Her2-Fc [9] = experiment: flow cytometry of T cells with 0.5 µg 4D5.BBZ mRNA and 15 µg 1412-4D11 mRNA; Her2-Fc + PE-anti-IgG-Fc; E1 without mRNA: 1.26
Her2-Fc [10] = experiment: flow cytometry of T cells with 0.5 µg 4D5.BBZ mRNA and 15 µg 4.6 mRNA; Her2-Fc + PE-anti-IgG-Fc; E1 without mRNA: 1.26
Her2-Fc [11] = experiment: flow cytometry of T cells with 0.5 µg 4D5.BBZ mRNA and 15 µg 4.2 mRNA; Her2-Fc + PE-anti-IgG-Fc; E1 without mRNA: 1.26
Her2-Fc [12] = experiment: flow cytometry of T cells with 0.5 µg 4D5.BBZ mRNA and 15 µg 4.4 mRNA; Her2-Fc + PE-anti-IgG-Fc; E1 without mRNA: 1.26

## 4D5.BBZ (scFv)
Her2-Fc [1]
  % of cells in the positive gate: 89.6
Her2-Fc [2]
  % of cells in the positive gate: 81.6
CD40-Fc (human)
  % of cells in the positive gate: 0.67
Her2-Fc [3]
  % of cells in the positive gate: 86.1
Her2-Fc [4]
  % of cells in the positive gate: 94.6
Her2-Fc [5]
  % of cells in the positive gate: 94.9
Her2-Fc [6]
  % of cells in the positive gate: 91.4
Her2-Fc [7]
  % of cells in the positive gate: 85.5
Her2-Fc [8]
  % of cells in the positive gate: 82.6
Her2-Fc [9]
  % of cells in the positive gate: 18.5
Her2-Fc [10]
  % of cells in the positive gate: 87.9
Her2-Fc [11]
  % of cells in the positive gate: 88.8
Her2-Fc [12]
  % of cells in the positive gate: 91.1
